In article PMC3835790, “Statistical Experimental Design Guided Optimization of a One-Pot Biphasic Multienzyme Total Synthesis of Amorpha-4,11-diene” (PLoS ONE, 2013):

Tested on: CC(C)=CCC/C(C)=C/CC/C(C)=C/CO[P@@](=O)(O)OP(=O)(O)O
Assay: purified protein
Conditions: 100 mM Tris/HCl pH 7.4, 30°C, substrate not printed in the table row, FPP from the pathway

Chain of amorpha-4,11-diene synthase (Ads) (Artemisia annua) (chain, as listed by the source): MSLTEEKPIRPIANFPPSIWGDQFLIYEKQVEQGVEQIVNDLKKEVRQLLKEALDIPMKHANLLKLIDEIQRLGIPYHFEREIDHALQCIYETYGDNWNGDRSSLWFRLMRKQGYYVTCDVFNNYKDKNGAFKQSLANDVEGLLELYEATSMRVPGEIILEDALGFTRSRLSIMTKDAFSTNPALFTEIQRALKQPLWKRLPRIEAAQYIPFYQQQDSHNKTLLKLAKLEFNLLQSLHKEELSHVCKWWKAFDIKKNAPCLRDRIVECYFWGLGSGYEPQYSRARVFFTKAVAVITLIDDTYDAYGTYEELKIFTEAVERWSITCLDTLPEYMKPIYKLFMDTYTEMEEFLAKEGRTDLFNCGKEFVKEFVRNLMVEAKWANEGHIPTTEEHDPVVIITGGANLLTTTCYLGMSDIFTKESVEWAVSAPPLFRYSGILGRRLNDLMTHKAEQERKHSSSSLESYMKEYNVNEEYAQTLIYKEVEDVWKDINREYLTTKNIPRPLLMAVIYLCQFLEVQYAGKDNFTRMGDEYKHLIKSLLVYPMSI

## amorpha-4,11-diene synthase (Ads) (Artemisia annua)
  Km: 43.72 ± 10.4 µM
  kcat: 0.05 s⁻¹
